{"source": "patent US20190134153A1", "about": "“IMMUNOMODULATORY EFFECT OF INHALED KINASE INHIBITOR PEPTIDES IN LUNG” (MOERAE MATRIX, INC., priority 2017, published 2019)", "experiment_in_all_cases": "Kinase Profiling Assay", "format_in_all_cases": "biochemical", "conditions_in_all_cases": "100 μM", "key": {"[1]": {"biological_target": "Abl(T315I)(h) (Homo sapiens, UniProt P00519, T315I)"}, "[2]": {"biological_target": "T1, ALK4(h) (Homo sapiens, UniProt P36896)", "T1 sequence (P36896 24-505)": "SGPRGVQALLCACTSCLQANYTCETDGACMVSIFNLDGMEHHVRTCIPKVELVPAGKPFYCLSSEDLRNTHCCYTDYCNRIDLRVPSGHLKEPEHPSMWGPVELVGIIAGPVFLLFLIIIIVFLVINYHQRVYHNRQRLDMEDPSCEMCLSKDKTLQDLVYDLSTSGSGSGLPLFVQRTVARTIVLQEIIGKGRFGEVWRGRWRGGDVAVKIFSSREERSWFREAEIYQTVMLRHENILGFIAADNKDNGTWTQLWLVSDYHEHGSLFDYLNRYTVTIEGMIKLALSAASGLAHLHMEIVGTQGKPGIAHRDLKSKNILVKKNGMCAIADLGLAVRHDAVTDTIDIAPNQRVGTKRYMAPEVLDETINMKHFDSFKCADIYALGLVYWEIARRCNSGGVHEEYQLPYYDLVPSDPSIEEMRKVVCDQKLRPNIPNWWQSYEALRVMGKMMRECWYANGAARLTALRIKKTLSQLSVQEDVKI"}, "[3]": {"biological_target": "CaMKIIδ(h) (Homo sapiens, UniProt Q13557)", "sequence (Q13557 whole entry)": "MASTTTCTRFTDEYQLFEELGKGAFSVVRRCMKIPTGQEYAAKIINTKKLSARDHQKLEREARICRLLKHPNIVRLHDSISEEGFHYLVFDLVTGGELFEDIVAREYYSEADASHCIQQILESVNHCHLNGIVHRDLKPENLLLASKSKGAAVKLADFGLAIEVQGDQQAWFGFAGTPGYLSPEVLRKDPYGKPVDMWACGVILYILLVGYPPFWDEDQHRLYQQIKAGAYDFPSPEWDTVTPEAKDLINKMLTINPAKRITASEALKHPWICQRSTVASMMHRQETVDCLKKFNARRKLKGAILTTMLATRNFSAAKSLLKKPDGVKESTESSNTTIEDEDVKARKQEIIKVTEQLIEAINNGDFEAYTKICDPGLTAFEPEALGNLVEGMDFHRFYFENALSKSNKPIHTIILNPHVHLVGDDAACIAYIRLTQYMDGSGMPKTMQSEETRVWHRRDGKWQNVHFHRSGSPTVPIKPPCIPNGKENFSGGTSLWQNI"}, "[4]": {"biological_target": "CDK3/cyclinE(h) (Homo sapiens, UniProt Q00526)", "sequence (Q00526 whole entry)": "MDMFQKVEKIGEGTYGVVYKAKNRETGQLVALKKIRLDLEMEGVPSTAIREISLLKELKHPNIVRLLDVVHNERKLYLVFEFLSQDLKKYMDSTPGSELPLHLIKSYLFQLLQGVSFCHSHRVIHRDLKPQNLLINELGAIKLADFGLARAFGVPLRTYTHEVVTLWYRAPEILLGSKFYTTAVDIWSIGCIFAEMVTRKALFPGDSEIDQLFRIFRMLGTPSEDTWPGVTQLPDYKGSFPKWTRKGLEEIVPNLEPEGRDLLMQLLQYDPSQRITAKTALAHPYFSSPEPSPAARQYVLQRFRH", "sequence (P24864 whole entry partner)": "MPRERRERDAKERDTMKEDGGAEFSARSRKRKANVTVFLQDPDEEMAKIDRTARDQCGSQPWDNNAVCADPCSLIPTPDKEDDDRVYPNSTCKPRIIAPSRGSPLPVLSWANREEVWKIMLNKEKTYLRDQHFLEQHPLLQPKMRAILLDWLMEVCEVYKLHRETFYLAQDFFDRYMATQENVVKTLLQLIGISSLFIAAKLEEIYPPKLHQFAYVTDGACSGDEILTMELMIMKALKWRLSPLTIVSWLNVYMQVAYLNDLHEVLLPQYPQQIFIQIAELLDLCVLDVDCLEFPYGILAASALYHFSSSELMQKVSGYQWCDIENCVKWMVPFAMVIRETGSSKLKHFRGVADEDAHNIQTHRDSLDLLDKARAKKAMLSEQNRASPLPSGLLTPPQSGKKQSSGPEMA"}, "[5]": {"biological_target": "CSK(h) (Homo sapiens, UniProt P41240)", "sequence (P41240 whole entry)": "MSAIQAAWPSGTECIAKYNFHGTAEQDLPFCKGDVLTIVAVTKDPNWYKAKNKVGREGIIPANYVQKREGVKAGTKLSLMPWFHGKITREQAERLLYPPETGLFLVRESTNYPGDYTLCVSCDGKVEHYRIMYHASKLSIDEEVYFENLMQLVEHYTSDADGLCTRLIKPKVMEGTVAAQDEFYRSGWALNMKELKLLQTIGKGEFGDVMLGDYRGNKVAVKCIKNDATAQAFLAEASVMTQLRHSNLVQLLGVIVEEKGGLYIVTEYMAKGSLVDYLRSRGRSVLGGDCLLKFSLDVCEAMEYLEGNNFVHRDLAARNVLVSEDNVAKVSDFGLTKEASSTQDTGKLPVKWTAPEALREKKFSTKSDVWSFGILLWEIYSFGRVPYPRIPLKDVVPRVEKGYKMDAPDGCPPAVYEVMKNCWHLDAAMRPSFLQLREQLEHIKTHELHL"}, "[6]": {"biological_target": "EGFR(h) (Homo sapiens, UniProt P00533)"}, "[7]": {"biological_target": "T2, EphB3(h) (Homo sapiens, UniProt P54753)", "T2 sequence (P54753 34-998)": "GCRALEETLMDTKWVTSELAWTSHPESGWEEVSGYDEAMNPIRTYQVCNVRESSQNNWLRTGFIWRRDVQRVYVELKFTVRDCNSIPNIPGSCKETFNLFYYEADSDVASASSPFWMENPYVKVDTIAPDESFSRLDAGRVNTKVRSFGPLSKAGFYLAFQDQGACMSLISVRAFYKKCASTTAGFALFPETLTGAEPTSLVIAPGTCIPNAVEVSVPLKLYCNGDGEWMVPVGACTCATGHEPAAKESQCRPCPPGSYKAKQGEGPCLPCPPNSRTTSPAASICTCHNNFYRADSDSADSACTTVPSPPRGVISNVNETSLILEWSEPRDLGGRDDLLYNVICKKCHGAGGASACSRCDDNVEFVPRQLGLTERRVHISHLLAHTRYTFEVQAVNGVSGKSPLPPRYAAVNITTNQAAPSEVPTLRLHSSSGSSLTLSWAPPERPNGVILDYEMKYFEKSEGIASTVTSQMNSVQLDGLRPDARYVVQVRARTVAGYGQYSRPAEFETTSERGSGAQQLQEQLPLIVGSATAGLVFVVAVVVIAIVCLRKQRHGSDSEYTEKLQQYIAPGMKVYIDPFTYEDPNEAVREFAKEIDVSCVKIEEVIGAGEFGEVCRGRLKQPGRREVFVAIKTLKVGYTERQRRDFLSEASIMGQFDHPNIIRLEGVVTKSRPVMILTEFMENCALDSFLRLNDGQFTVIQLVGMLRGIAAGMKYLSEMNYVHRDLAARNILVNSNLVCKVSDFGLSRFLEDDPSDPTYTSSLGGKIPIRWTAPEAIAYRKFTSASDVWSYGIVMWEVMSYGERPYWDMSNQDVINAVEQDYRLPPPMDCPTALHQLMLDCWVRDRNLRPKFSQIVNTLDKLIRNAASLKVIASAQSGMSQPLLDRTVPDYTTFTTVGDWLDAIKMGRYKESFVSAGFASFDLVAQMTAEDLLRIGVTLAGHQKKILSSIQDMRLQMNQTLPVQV"}, "[8]": {"biological_target": "MEK1(h) (Homo sapiens, UniProt Q02750)"}, "[9]": {"biological_target": "Mnk2(h) (Homo sapiens, UniProt Q9HBH9)", "sequence (Q9HBH9 whole entry)": "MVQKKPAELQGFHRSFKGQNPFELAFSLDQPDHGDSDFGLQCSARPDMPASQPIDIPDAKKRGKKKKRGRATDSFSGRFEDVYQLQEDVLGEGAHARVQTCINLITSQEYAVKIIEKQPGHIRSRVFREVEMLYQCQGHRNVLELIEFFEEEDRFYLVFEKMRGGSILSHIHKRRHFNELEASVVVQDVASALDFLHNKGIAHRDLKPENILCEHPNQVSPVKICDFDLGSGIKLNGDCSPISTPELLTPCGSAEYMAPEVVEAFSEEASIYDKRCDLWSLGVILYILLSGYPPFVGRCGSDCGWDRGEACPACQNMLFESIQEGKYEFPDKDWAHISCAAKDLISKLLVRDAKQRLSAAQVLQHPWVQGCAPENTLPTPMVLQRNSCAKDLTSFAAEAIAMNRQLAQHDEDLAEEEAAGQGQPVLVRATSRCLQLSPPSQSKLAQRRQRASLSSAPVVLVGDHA"}, "[10]": {"biological_target": "T3, MST1(h) (Homo sapiens, UniProt Q13043)", "T3 sequence (Q13043 1-487)": "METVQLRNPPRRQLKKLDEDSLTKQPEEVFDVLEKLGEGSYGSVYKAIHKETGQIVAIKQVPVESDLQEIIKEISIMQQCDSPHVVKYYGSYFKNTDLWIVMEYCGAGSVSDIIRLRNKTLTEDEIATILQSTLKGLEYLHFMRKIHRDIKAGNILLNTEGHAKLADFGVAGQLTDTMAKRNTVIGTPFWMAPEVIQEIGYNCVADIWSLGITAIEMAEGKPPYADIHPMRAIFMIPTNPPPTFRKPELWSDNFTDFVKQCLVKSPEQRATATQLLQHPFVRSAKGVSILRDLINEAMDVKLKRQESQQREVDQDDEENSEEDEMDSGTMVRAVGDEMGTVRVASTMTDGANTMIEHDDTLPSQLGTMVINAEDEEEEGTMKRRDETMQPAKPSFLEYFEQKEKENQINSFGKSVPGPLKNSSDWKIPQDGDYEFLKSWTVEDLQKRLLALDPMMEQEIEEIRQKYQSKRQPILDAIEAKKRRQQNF"}, "[11]": {"biological_target": "Ret(h) (Homo sapiens, UniProt P07949)"}, "[12]": {"biological_target": "Ret(V804M)(h) (Homo sapiens, UniProt P07949, V804M)"}}}
{"sequence": "FAKLAARLYRKALARQLGVAA [MMI-0300]", "values": [{"measurement": "% activity", "setting": "[1]", "result": 97, "unit": "%"}, {"measurement": "% activity", "setting": "[2]", "result": 140, "unit": "%"}, {"measurement": "% activity", "setting": "[3]", "result": 1, "unit": "%"}, {"measurement": "% activity", "setting": "[4]", "result": 94, "unit": "%"}, {"measurement": "% activity", "setting": "[5]", "result": 49, "unit": "%"}, {"measurement": "% activity", "setting": "[6]", "result": 21, "unit": "%"}, {"measurement": "% activity", "setting": "[7]", "result": 62, "unit": "%"}, {"measurement": "% activity", "setting": "[8]", "result": 77, "unit": "%"}, {"measurement": "% activity", "setting": "[9]", "result": 89, "unit": "%"}, {"measurement": "% activity", "setting": "[10]", "result": 14, "unit": "%"}, {"measurement": "% activity", "setting": "[11]", "result": 140, "unit": "%"}, {"measurement": "% activity", "setting": "[12]", "result": 95, "unit": "%"}]}
{"sequence": "HRRIKAWLKKIKALARQLGVAA [MMI-0500]", "values": [{"measurement": "% activity", "setting": "[1]", "result": 16, "unit": "%"}, {"measurement": "% activity", "setting": "[2]", "result": 81, "unit": "%"}, {"measurement": "% activity", "setting": "[3]", "result": 1, "unit": "%"}, {"measurement": "% activity", "setting": "[4]", "result": 8, "unit": "%"}, {"measurement": "% activity", "setting": "[5]", "result": 2, "unit": "%"}, {"measurement": "% activity", "setting": "[6]", "result": "−1", "unit": "%"}, {"measurement": "% activity", "setting": "[7]", "result": 79, "unit": "%"}, {"measurement": "% activity", "setting": "[8]", "result": 21, "unit": "%"}, {"measurement": "% activity", "setting": "[9]", "result": 6, "unit": "%"}, {"measurement": "% activity", "setting": "[10]", "result": 3, "unit": "%"}, {"measurement": "% activity", "setting": "[11]", "result": 174, "unit": "%"}, {"measurement": "% activity", "setting": "[12]", "result": 36, "unit": "%"}]}
{"sequence": "KAFAKLAARLYRKALARQLGVAA [MMI-0400]", "values": [{"measurement": "% activity", "setting": "[2]", "result": 130, "unit": "%"}, {"measurement": "% activity", "setting": "[3]", "result": 2, "unit": "%"}, {"measurement": "% activity", "setting": "[4]", "result": 92, "unit": "%"}, {"measurement": "% activity", "setting": "[5]", "result": 16, "unit": "%"}, {"measurement": "% activity", "setting": "[6]", "result": 16, "unit": "%"}, {"measurement": "% activity", "setting": "[7]", "result": 47, "unit": "%"}, {"measurement": "% activity", "setting": "[8]", "result": 77, "unit": "%"}, {"measurement": "% activity", "setting": "[9]", "result": 86, "unit": "%"}, {"measurement": "% activity", "setting": "[10]", "result": 6, "unit": "%"}, {"measurement": "% activity", "setting": "[11]", "result": 145, "unit": "%"}, {"measurement": "% activity", "setting": "[12]", "result": 87, "unit": "%"}]}
{"sequence": "YARAAARQARAKALNRQLGVA [MMI-0200]", "values": [{"measurement": "% activity", "setting": "[1]", "result": 108, "unit": "%"}, {"measurement": "% activity", "setting": "[2]", "result": 152, "unit": "%"}, {"measurement": "% activity", "setting": "[3]", "result": 2, "unit": "%"}, {"measurement": "% activity", "setting": "[5]", "result": 33, "unit": "%"}, {"measurement": "% activity", "setting": "[6]", "result": 83, "unit": "%"}, {"measurement": "% activity", "setting": "[7]", "result": 128, "unit": "%"}, {"measurement": "% activity", "setting": "[10]", "result": 72, "unit": "%"}, {"measurement": "% activity", "setting": "[11]", "result": 96, "unit": "%"}]}
